Assay results reported in article PMC3792123, “Role of Cysteines in the Stability and DNA-Binding Activity of the Hypochlorite-Specific Transcription Factor HypT” (PLoS ONE, 2013).

Tests used:
[1] = target: the molecule itself; experiment: AUC; sedimentation velocity, 4 to 10 µM protein, absorbance at 280 nm, 10 mM NaH2PO4, 400 mM NaCl, 5% glycerin, pH 7.5; c(S) method (SedFit)
[2] = target: the molecule itself; experiment: cross-linking; disulfide formed on oxidation: purified, reduced protein treated with HOCl (25 µM), NH2Cl (25 µM) or H2O2 (1 mM), then non-reducing SDS-PAGE; disulfide-linked dimer at ca. 64 kDa, mostly reduced again by 1 mM TCEP

Protein	binding result [2]	further results
HypT (wild-type, purified) (natural protein, E. coli, UniProt P39376 1-303, looked up, HypT (YjiE), HOCl-specific LysR-type transcription factor of E. coli; Oxidation (HOCl, NH2Cl, H2O2) gives a Cys4-Cys4 disulfide between two chains; also called YjiE; wild-type HypT; source: E. coli BL21 (DE3) gold, pET11a, purified (HisTrap, PD10 desalting); copies: 12) MDDCGAILHNIETKWLYDFLTLEKCRNFSQAAVSRNVSQPAFSRRIRALEQAIGVELFNRQVTPLQLSEQGKIFHSQIRHLLQQLESNLAELRGGSDYAQRKIKIAAAHSLSLGLLPSIISQMPPLFTWAIEAIDVDEAVDKLREGQSDCIFSFHDEDLLEAPFDHIRLFESQLFPVCASDEHGEALFNLAQPHFPLLNYSRNSYMGRLINRTLTRHSELSFSTFFVSSMSELLKQVALDGCGIAWLPEYAIQQEIRSGKLVVLNRDELVIPIQAYAYRMNTRMNPVAERFWRELRELEIVLS	–	stoichiometry N [1]: 12
HypT^quadrupleC150 (natural protein, E. coli, UniProt P39376 1-303, looked up, HypT (YjiE) of E. coli, quadruple mutant: four cysteines replaced by serine, Cys150 left intact; source: E. coli BL21 (DE3) gold, pET28a, purified (HisTrap, PD10 desalting)) MDDSGAILHNIETKWLYDFLTLEKSRNFSQAAVSRNVSQPAFSRRIRALEQAIGVELFNRQVTPLQLSEQGKIFHSQIRHLLQQLESNLAELRGGSDYAQRKIKIAAAHSLSLGLLPSIISQMPPLFTWAIEAIDVDEAVDKLREGQSDCIFSFHDEDLLEAPFDHIRLFESQLFPVSASDEHGEALFNLAQPHFPLLNYSRNSYMGRLINRTLTRHSELSFSTFFVSSMSELLKQVALDGSGIAWLPEYAIQQEIRSGKLVVLNRDELVIPIQAYAYRMNTRMNPVAERFWRELRELEIVLS	–	binding result [1]: binds
HypT^C25S (natural protein, E. coli, UniProt P39376 1-303, looked up, HypT (YjiE) of E. coli, single mutant C25S; source: E. coli BL21 (DE3) gold, pET28a, purified (HisTrap, PD10 desalting)) MDDCGAILHNIETKWLYDFLTLEKSRNFSQAAVSRNVSQPAFSRRIRALEQAIGVELFNRQVTPLQLSEQGKIFHSQIRHLLQQLESNLAELRGGSDYAQRKIKIAAAHSLSLGLLPSIISQMPPLFTWAIEAIDVDEAVDKLREGQSDCIFSFHDEDLLEAPFDHIRLFESQLFPVCASDEHGEALFNLAQPHFPLLNYSRNSYMGRLINRTLTRHSELSFSTFFVSSMSELLKQVALDGCGIAWLPEYAIQQEIRSGKLVVLNRDELVIPIQAYAYRMNTRMNPVAERFWRELRELEIVLS	binds	–
HypT^5C→S (natural protein, E. coli, UniProt P39376 1-303, looked up, also called cysteine-free HypT mutant; source: E. coli BL21 (DE3) gold, pET28a, purified (HisTrap, PD10 desalting)) MDDSGAILHNIETKWLYDFLTLEKSRNFSQAAVSRNVSQPAFSRRIRALEQAIGVELFNRQVTPLQLSEQGKIFHSQIRHLLQQLESNLAELRGGSDYAQRKIKIAAAHSLSLGLLPSIISQMPPLFTWAIEAIDVDEAVDKLREGQSDSIFSFHDEDLLEAPFDHIRLFESQLFPVSASDEHGEALFNLAQPHFPLLNYSRNSYMGRLINRTLTRHSELSFSTFFVSSMSELLKQVALDGSGIAWLPEYAIQQEIRSGKLVVLNRDELVIPIQAYAYRMNTRMNPVAERFWRELRELEIVLS	–	stoichiometry N [1]: 4
HypT^C242S (natural protein, E. coli, UniProt P39376 1-303, looked up, HypT (YjiE) of E. coli, single mutant C242S; source: E. coli BL21 (DE3) gold, pET11a, purified (HisTrap, PD10 desalting)) MDDCGAILHNIETKWLYDFLTLEKCRNFSQAAVSRNVSQPAFSRRIRALEQAIGVELFNRQVTPLQLSEQGKIFHSQIRHLLQQLESNLAELRGGSDYAQRKIKIAAAHSLSLGLLPSIISQMPPLFTWAIEAIDVDEAVDKLREGQSDCIFSFHDEDLLEAPFDHIRLFESQLFPVCASDEHGEALFNLAQPHFPLLNYSRNSYMGRLINRTLTRHSELSFSTFFVSSMSELLKQVALDGSGIAWLPEYAIQQEIRSGKLVVLNRDELVIPIQAYAYRMNTRMNPVAERFWRELRELEIVLS	binds	–
HypT^C178S (natural protein, E. coli, UniProt P39376 1-303, looked up, HypT (YjiE) of E. coli, single mutant C178S; source: E. coli BL21 (DE3) gold, pET11a, purified (HisTrap, PD10 desalting)) MDDCGAILHNIETKWLYDFLTLEKCRNFSQAAVSRNVSQPAFSRRIRALEQAIGVELFNRQVTPLQLSEQGKIFHSQIRHLLQQLESNLAELRGGSDYAQRKIKIAAAHSLSLGLLPSIISQMPPLFTWAIEAIDVDEAVDKLREGQSDCIFSFHDEDLLEAPFDHIRLFESQLFPVSASDEHGEALFNLAQPHFPLLNYSRNSYMGRLINRTLTRHSELSFSTFFVSSMSELLKQVALDGCGIAWLPEYAIQQEIRSGKLVVLNRDELVIPIQAYAYRMNTRMNPVAERFWRELRELEIVLS	binds	–
HypT^C150S (natural protein, E. coli, UniProt P39376 1-303, looked up, HypT (YjiE) of E. coli, single mutant C150S; source: E. coli BL21 (DE3) gold, pET11a, purified (HisTrap, PD10 desalting)) MDDCGAILHNIETKWLYDFLTLEKCRNFSQAAVSRNVSQPAFSRRIRALEQAIGVELFNRQVTPLQLSEQGKIFHSQIRHLLQQLESNLAELRGGSDYAQRKIKIAAAHSLSLGLLPSIISQMPPLFTWAIEAIDVDEAVDKLREGQSDSIFSFHDEDLLEAPFDHIRLFESQLFPVCASDEHGEALFNLAQPHFPLLNYSRNSYMGRLINRTLTRHSELSFSTFFVSSMSELLKQVALDGCGIAWLPEYAIQQEIRSGKLVVLNRDELVIPIQAYAYRMNTRMNPVAERFWRELRELEIVLS	binds	–
